System: MS2 coat protein
Assay: apparent KD of MS2 coat protein; higher = weaker reporter binding
Conditions: Eterna round: R107
Protocol: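 RNA-MaP round R107: designed RNA switches with theophylline, tryptophan, arginine or FMN aptamers are transcribed on-chip within common flanks. They are titrated with SNAP-549-labelled MS2 coat protein in RNA-MaP buffer (100 mM Tris pH 7.5, 80 mM KCl, 4 mM MgCl2), without ligand or with the indicated ligand. Median apparent KD per design.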

[1] = input ligand: theophylline 20 uM
[2] = input ligand: theophylline 2 mM
[3] = input ligand: tryptophan 2.4 mM

| Sequence | apparent KD of MS2 coat protein (input ligand: arginine 13.2 mM) | apparent KD of MS2 coat protein [1] | apparent KD of MS2 coat protein [2] | apparent KD of MS2 coat protein (input ligand: none) | apparent KD of MS2 coat protein [3] |
| --- | --- | --- | --- | --- | --- |
| ACAUGUUGGUGGUAUCUACGAAGGCGGAAACGAGGACCGGUACGGCCGCCACUCGGCGACAUGAGGAUCACCCAUGUGGUUAAAA [Exclusion - Tryptophan A (Freestyle 5)] | 28.8 nM | 96.9 nM | 254 nM |  |  |
| ACAUUUAACUGAAGGAGCGUGAUAUACAUGAGGAUCACCCAUGUGUCUUUCAUGAAUAAUUCACAGGUAGGUCGCAGACUAAUGA [JR_ExcArginiB_Sub008] | 40.4 nM | 50.3 nM | 45.4 nM | 36.1 nM | 37.6 nM |
| ACAUUUAACUGAAGGAGCGUGAUAUGUACAUGAGGAUCACCCAUGUCUUACAUGUGAUAUUCACAGGUAGGUCGCAGACUAAUGA [JR_ExcArginiB_Sub004] | 22.7 nM | 23.2 nM | 23 nM | 18.8 nM | 20.3 nM |
| ACCUACACGGAGACGUGUAGGAGUAAUGAUACCAGCAUGGAGACAUGCCCUUGGCAGCGUUACAUGAGGAUCACCCAUGUGGUGC [ETHA #6] | 19.1 nM | 37.4 nM |  |  | 21.6 nM |
| ACCUCAAUGGAUGAUACCAGCUCAAGGACGAACAUGAGGAUCACCCAUGUGACGUGGUGUAGCCCUUGGCAGCAUACUGACACCU [theeternabot_sameState_MS2_Theo_B_24] | 34.6 nM | 49 nM |  |  | 39.1 nM |
| ACGAACGCACCUGAGGAUCACCCAGGUGAUACCAGCCUGGAAACAGGCCCUUGGCAGCACCUAAAAUAAAGGUAACGUUCGAAUA [TheoAX7 #MicroSwitchBubble #AlternativeMS2] | 41.1 nM | 165 nM | 173 nM | 74.2 nM | 61.9 nM |
| ACGACGCAUACAGAUACCAGUAGCCGAGAAACAUGAGGAUCACCCAUGUCGAGCGACAACUGCCCUUGGCAGCUGUAUGCGUCAG [SSTheo B #12] | 8.02 nM | 10.3 nM |  |  | 8.02 nM |
| ACGGAGAUUGCUAAAUGUUGGCGAGCGGAUACCAGCCUAUUAUUGGGCCCUUGGCAGCCGACAUGAGGAUCACCCAUGUAAACAA [Berere] | 9.36 nM | 90.8 nM |  |  | 76.7 nM |
| ACGUAAUGCAGAAGGAGCGUCGACCUCUUACAUGAGGAUCACCCAUGUUGCAUGGUUGUACGACAGGUAGGUCGCUGAAGUACGA [#05 Exclusion - Arginine B] | 34.5 nM | 89.5 nM | 68.1 nM | 38.2 nM | 65.4 nM |
| ACUACAUGAGGAUCACCCAUGUGUACUGAAGGAGCGGCGGAAACGCCAGGUAGGUCGCAGUACACCUCAACCAGCGGUCCUAAGU [EAA NP+V+V2 #1] | 30 nM | 85.9 nM | 115 nM | 38.2 nM | 51.1 nM |
| ACUGCUUUAGCGGCCGCCACUACAUGGACACUUACACUUUCUUGUUACAUGAGGAUCACCCAUGUUAGGACCGGGCUUGUACGGA [theeternabot_exclusion_MS2_Trp_B_31] | 30.5 nM | 82.6 nM | 68.4 nM |  |  |
| AGACAUGAGGAUCACCCAUGUAGCAUGGAUACCAGAUGUAGAUUAGUCCCUUGGCAGCUGUGGUGAAGUGAUGCAUUGCUCCUAG [Exclusion - Theophylline A (Freestyle 2)] | 29.9 nM | 74.3 nM |  |  | 50.1 nM |
| AGACAUGAGGAUCACCCAUGUAGUAUGGAUACCAGAUCCAGAUUUAUCCCUUGGCAGCUGUGGUACAGCGUUGCAUCGCUCCUAG [Exclusion - Theophylline A (Freestyle 13)] | 28.9 nM | 44.5 nM |  |  | 31.7 nM |
| AGACUGUCUUCGGACAGUCCGGACAGCCCGCGAGGACCGGUACGGCCGCCACUCGCGUGAGGAUCACCCAUGCGAGGCUGUCCGA [Omei Tryp A Exc A v1] | 27.5 nM | 40.1 nM | 46 nM |  | 69.9 nM |
| AGAGCAUUGACGGCCGCCACUUAUGUCACAUGAGGAUCACCCAUGUGAUGGGUGAUAGCCCGGUUGAGGACCGGGUCAAUGCUCA [Omei Tryp SS B v6] | 14.8 nM | 18.5 nM | 15.2 nM |  |  |
| AGAGUCAGACAAAAGUCUGGCUCAGCCGAAGGAGCGUCCGAAAGGACAGGUAGGUCGCGGUUACCUGAGGAUCACCCGGGUUCCU [ArgAS 25 #OpenEnded #AlternativeMS2] | 56.7 nM | 377 nM | 590 nM | 219 nM | 184 nM |
| AGAUUCGACACGGCCGCCACUUGUGGUGGAUUAUCCUAUGUCGAACAUGAGGAUCACCCAUGUACAAGGACCGGGUGUUGAGUCU [XTryp B #21] | 156 nM | 365 nM | 447 nM |  |  |
| AGCAUGUUAUCAGAUACCAGACAUCUUUUAAAACAUAUUACAUGAGGAUCACCCAUGUUGGUCCCUUGGCAGCUGAAAUAUUUCA [JR_Nu_SSTheophyB_Sub024] | 118 nM | 223 nM |  |  | 321 nM |
| AGCCACUCGAGUGAUCCUCACGAGUGGCUACGAGGACCGGUACGGCCGCCACUCGAAUUAACAUGAGGAUCACCCAUGUAAUAAU [Brourdmod03] | 29.2 nM | 188 nM | 270 nM |  |  |

| Sequence | apparent KD of MS2 coat protein (input ligand: arginine 13.2 mM) | apparent KD of MS2 coat protein [1] | apparent KD of MS2 coat protein [2] | apparent KD of MS2 coat protein (input ligand: none) | apparent KD of MS2 coat protein [3] |
| --- | --- | --- | --- | --- | --- |
| AGCUGGGAUCCUCAGCGUCAAAGACGCAGUCGAGGACCGGUACGGCCGCCACUCGACACGAGGAUCACCCGUGUCAUUCCCAGCA [TrypAX 1 #SwitchBubble #AlternativeMS2 #MS2Late #CuTurnoff] | 34.5 nM | 387 nM | 584 nM |  | 1460 nM |
| AGUACACGAACUGAUACCAGCCGGACAUGAGGAUCACCCAUGUCCUACCUCUGUUCGGUUGGCCCUUGGCAGCAGUUCGUGUACA [Omei Theo B SS A v9] | 40.5 nM | 391 nM |  |  | 76.2 nM |
| AGUACCAAUGAGGAUACCAGAGUGCGACGCCGAAACCUUGACAUGAGGAUCACCCAUGUACUCCCUUGGCAGCCUGUACUUGCCA [theeternabot_exclusion_MS2_Theo_B_17] | 22.8 nM | 40.7 nM |  |  | 34.9 nM |
| AGUACUCGAACGGAUACCAGCCGGACAUGAGGAUCACCCAUGUCCUACCAUGUCUCGGUUGGCCCUUGGCAGCCGUUCGUGUACA [Omei Theo B SS A v2] | 17 nM | 469 nM |  |  | 95.8 nM |
| AGUAGCUGCCGAAGGAGCGCCGUGUUCCUACAUGAGGAUCACCCAUGUAGCGUUGGGUUACGGCAGGUAGGUCGCGGCGGAUAGG [Same State - Arginine B / B] | 30 nM | 119 nM | 73.8 nM | 34.3 nM | 119 nM |
| AGUCUUAAAGGAAGGAGCGCAGUCAUAACAUGAGGAUCACCCAUGUCGAUGUGAGGGUCAUUGCAGGUAGGUCGCCUUACUAAGA [Same State - Arginine B (Freestyle 5)] | 22.8 nM | 46 nM | 30.2 nM | 40.4 nM | 40.6 nM |
| AGUGUAUCCAUCGAUACCAGCCACAACGUAACAUACACAUGAGGAUCACCCAUGUUGUGUGGCCCUUGGCAGCGGUGCCUGUGUA [Same State - Theophylline B Attempt #1 (HarryS)] | 14.4 nM | 16.4 nM |  |  | 13.9 nM |
| AGUGUUGUCUGAAGGAGCGGCCCUUGAUCCUCAUGAGACAUGAGGAUCACCCAUGUCUCGGGCCAGGUAGGUCGCAGGCAUCACA [Omei Arg B SS v1] | 22.6 nM | 34.1 nM | 23.3 nM | 20.5 nM | 23.7 nM |
| AGUUGCGUUGGAAGGAGCGGCAUGUGUGGGCCUCCUUACAAUACAUGAGGAUCACCCAUGUGCCAGGUAGGUCGCCAACACAGGU [Tiedmaqu] | 47.9 nM | 79.8 nM | 96 nM | 40.2 nM | 54.8 nM |
| AUAAAUAAUAAAUAAGAUAAAAUGGGUGAACGAGGACCGGUACGGCCGCCACUCGGACAUGAGGAUCACCCAUGUCCAUGUGAAA [#22 Exclusion Tryptophan A] | 14 nM | 19.8 nM | 20.2 nM |  |  |
| AUAACAUGAGGAUCACCCAUGUAAGCUGAAGGAGCGGACGAAAGUCCAGGUAGGUCGCAGCGCUCCUUCACCUCAUGAGAAGGAG [(M1)-(M2)-(Arg1)-(Arg2)-(A)'-(M)'-(A)''_Design2] | 23.4 nM | 31.4 nM | 25.3 nM | 23 nM | 22.4 nM |
| AUAACAUGAGGAUCACCCAUGUAUUGGUUACGAGGACCGGUACGGCCGCCACUCGUAUUAUAGUGGUAUUUUGUUUAUAUGAUAA [JR_Nu_TrtptoA_Sub019] | 14.8 nM | 20 nM | 18.4 nM |  |  |
| AUACAUGAGGAUCACCCAUGUAUAGUUGAAGGAGCGACCAGAGGGUCAGGUAGGUCGCAACACAUGAGGAUCACCCAUGUAUCGA [DOUBLE!!! :-D #7] | 30 nM | 52.9 nM | 47.5 nM | 49.9 nM | 34.6 nM |
| AUACAUGAGGAUCACCCAUGUGAUGGCCGGCGAGGACCGGUACGGCCGCCACUCGUGAUCCGUCCCGAGAGCAAAGCUCUCGACA [Raatala] | 4.9 nM | 436 nM | 1080 nM | 53.7 nM | 50.3 nM |
| AUACAUGAGGAUCACCCAUGUGAUGGCCGGCGAGGACCGGUACGGCCGCCACUCGUGAUCCGUCCUGAGAGCAAAGCCCUCAACA [Lequcele] | 80.1 nM | 450 nM | 199 nM |  |  |
| AUACAUGAGGAUCACCCAUGUGAUGGCCGGCGAGGACCGGUACGGCCGCCACUCGUGAUCCGUCCUGAGAGCAAAGCCCUCAGCA [Onedti] | 17.3 nM | 287 nM | 237 nM |  |  |
| AUACAUGAGGAUCACCCAUGUUAUAGUGAAGGAGCGACAUUUAGGUCAGGUAGGUCGCACUAUUGAAUUAUUAUCCUCUUUUCUU [JR_ExcArginiA_Sub021] | 23.1 nM | 31.2 nM | 23.7 nM | 21.3 nM | 24.7 nM |
| AUAUAUACAUGAGGAUCACCCAUGUUAUUUCGAGGACCGGUACGGCCGCCACUCGAUAGAGUAGAAGUAAAUUUUGAUUCAUGUA [JR_SSTryptoA_Sub009] | 17.9 nM | 27 nM | 23.5 nM |  |  |
